The results in this text go back to patent publication US20030100501A1, “Q4N2NEG2 enhances CFTR activity” (Case Western Reserve University, priority 2001, published 2003).

In one assay the target is T1, mutant G551D CFTR (Homo sapiens, UniProt P13569, G551D).
T1 construct: expressed in transfected cells; host or cells: 293-EBNA HEK cells (inferred: the methods describe this line for 'the CFTR proteins')
The experiment in a line: Planar lipid bilayer open probability of mutant CFTR. The format is biochemical. An excerpt: The Q4 N2 NEG2 peptide sequence has been tested on one mutant form of CFTR, G551D, which reaches the plasma membrane. In the planar lipid bilayer, Q4N2NEG2 increased the open probability of G551 by about threefold. Thus, this peptide is useful to stimulate channel activity in mutant forms of CFTR that reach the plasma membrane.
(§1) Lipid bilayer membranes were formed across an aperture of ˜200 (m diameter with a mixture of phosphatidylethanolamine:phosphatidylserine:cholesterol in a ratio of 5:5:1. The lipids were dissolved in decane at a concentration of 33 mg/ml. The recording solutions contained: cis (intracellular), 200 mM CsCl, 1 mM MgCl2, 2 mM ATP, and 10 mM HEPES-Tris (pH 7.4); trans (extracellular), 50 mM CsCl, 10 mM HEPES-Tris (pH 7.4). Vesicles (1-4 (1) containing wild-type CFTR were added to the cis solution. The PKA catalytic subunit was present at a concentration of 50 units/ml in the cis solution unless noted otherwise. Single channel currents were recorded with an Axopatch 200A patch clamp unit (Axon Instruments). The currents were sampled at 1-2.5 ms/point. Single channel data analyses were performed with pClamp and TIPS softwares.

A further assay addresses T2, wt-CFTR channel (Homo sapiens, UniProt P13569).
T2 construct: expressed in transfected cells; host or cells: 293-EBNA HEK cells (Invitrogen) transfected with pCEP4(wt); microsomal membrane vesicles
Put plainly: Single channel recording of CFTR channels reconstituted in planar lipid bilayer, peptide added to cis (intracellular) side. The assay is classed as biochemical.
Source text: The activating peptide of Q4N2NEG2 was created by substituting glutamine residues for glutamic acid residues at four sites and asparagines for aspartic acid residues at two sites of the authentic NEG2 peptide sequence […] (SEQ ID NO: 7). In addition, a serine residue was substituted for cysteine, to prevent peptide dimerization, and norleucine was substituted for methionine, to prevent oxidation. These changes create a peptide with reduced chemical reactivity and high predicted helical structure, confirmed by circular dichroism, as well as reduced net negative charge (from −9 to −3). […] At concentrations of 4-6 μM Po of CFTR doubles.
To test whether the Q4N2NEG2 polypeptide is responsible for increasing the open probability of the CFTR channel, synthetic Q4N2NEG2, a 22 amino acid peptide, was added to the cis-intracellular side of single CFTR channels captured in the planar lipid bilayer (FIG. 1). […] During stimulation, the open probability doubles and more transitions are observed between the open and closed states (FIG. 1B). The open probability observed in 5 experiments at 4 μM concentration Q4N2NEG2 is shown to be increased by about two-fold in the graph (FIG. 1C).
The wt CFTR cDNA was subcloned into an Epstein-Barr virus-based episomal eukaryotic expression vector, pCEP4 (Invitrogen, San Diego, Calif.), between the Nhe1 and Xho1 restriction sites.
A human embryonic kidney cell line (293-EBNA HEK; Invitrogen) was used for transfection and expression of the CFTR proteins (Ma et al., 1997, Ma et al., 1996, Xie et al., 1995). The HEK-293 cell line contains a pCMV-EBNA vector, which constitutively expresses the Epstein-Barr virus nuclear antigen-1 (EBNA-1) gene product and increases the transfection efficiency of Epstein-Barr virus-based vectors. The cells were maintained in Dulbecco's Modified Eagle Medium with 10% FBS and 1% L-glutamine. Geneticin (G418, 250 (g/ml) was added to the cell culture medium to maintain selection of the cells containing the pCMV-EBNA vector. Lipofectamine reagent (Life Technologies, Inc) in Optimem media (serum-free) was used to transfect the HEK-293 cells with pCEP4(wt). After 5 hours, serum was added to the media (10% final serum concentration). Twenty-four hours after transfection, the transfection media was replaced with fresh media. The cells were harvested two days after transfection and microsomal membrane vesicles were prepared for single channel measurements in the lipid bilayer reconstitution system.
HEK-293 cells transfected with pCEP4(CFTR) were harvested and homogenized using a combination of hypotonic lysis and Dounce homogenization in the presence of protease inhibitors (Ma et al., 1997, Ma et al., 1996, Xie et al., 1995). […]
as §1, with “The currents were sampled at 1-2.5 ms/point. Single channel data analyses were performed with pClamp and TIPS softwares.” left out

Square brackets hold non-standard residues; d marks the D form. Ends that are not written are not given here. Nle = CCCC[C@H](N)C(=O)O

T2 sequence (P13569 whole entry): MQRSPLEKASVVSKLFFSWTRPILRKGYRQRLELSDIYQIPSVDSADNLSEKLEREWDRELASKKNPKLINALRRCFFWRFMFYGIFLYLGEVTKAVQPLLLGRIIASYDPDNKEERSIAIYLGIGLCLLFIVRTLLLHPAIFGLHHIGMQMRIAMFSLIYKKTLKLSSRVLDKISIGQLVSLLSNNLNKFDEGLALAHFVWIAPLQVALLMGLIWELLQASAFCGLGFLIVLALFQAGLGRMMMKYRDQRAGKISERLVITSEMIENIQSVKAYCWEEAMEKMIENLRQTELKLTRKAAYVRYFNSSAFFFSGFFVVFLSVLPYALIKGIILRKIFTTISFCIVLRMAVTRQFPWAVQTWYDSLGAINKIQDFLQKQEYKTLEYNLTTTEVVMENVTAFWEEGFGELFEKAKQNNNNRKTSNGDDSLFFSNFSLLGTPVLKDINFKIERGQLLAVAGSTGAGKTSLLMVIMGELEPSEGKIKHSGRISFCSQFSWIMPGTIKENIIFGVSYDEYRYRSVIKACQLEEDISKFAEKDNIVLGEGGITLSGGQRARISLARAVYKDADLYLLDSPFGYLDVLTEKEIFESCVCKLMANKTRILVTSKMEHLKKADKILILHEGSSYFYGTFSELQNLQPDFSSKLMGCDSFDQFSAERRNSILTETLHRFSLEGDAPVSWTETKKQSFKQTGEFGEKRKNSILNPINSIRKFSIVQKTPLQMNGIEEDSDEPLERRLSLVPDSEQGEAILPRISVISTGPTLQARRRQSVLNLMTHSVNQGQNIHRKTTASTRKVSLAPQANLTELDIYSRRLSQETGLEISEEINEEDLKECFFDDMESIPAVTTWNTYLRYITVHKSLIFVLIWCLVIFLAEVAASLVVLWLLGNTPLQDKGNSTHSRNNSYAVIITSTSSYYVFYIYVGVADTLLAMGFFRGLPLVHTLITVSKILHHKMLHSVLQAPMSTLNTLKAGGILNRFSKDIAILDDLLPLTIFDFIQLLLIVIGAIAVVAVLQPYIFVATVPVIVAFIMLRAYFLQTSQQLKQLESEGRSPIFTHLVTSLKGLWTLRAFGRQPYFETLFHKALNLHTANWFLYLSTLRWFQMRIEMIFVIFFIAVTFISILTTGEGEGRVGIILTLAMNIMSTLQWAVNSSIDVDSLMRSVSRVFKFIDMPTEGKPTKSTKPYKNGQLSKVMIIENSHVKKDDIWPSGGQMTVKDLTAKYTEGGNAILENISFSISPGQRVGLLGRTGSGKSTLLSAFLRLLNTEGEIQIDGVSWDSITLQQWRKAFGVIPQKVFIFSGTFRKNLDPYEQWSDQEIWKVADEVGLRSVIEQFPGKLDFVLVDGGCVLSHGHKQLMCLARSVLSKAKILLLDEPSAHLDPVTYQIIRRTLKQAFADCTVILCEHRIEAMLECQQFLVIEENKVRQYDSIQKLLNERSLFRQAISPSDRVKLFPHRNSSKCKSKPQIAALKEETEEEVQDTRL
T1 sequence (P13569 whole entry G551D): as the sequence (P13569 whole entry) above, with G551D counted along it

As to “GLEISEQINQQNLKQSFFNDLE (Ac-GLEISEQINQQNLKQSFFND[Nle]E; not fully specified (C-terminus)) [Q4N2NEG2, synthetic 22 amino acid peptide derived from NEG2 with four Glu to Gln, two Asp to Asn, Cys to Ser, Met to norleucine substitutions]”, the “increase in open probability of G551D CFTR” value with mutant G551D CFTR is “about threefold”. In addition, in the assay with wt-CFTR channel (4 μM peptide, summary of 5 experiments (FIG. 1C)), the “increase in open probability (Po) of CFTR channel” value is “about two-fold”. In addition, the “inhibitory activity on CFTR channel” value with wt-CFTR channel (any experiment at any concentration of peptide) is “No inhibitory activity”. Further, the “stimulation of channel activity” value with wt-CFTR channel (concentration ranging 0.5 to 14 μM, cis side) is reported as “marked dose-related stimulation”. The “Po of CFTR” value with wt-CFTR channel (peptide concentrations of 4-6 μM, cis side) is recorded as “doubles”. Also, the “open probability during stimulation, single wt-CFTR channel” value with wt-CFTR channel (single channel trace, FIG. 1A/1B, 4 μM) is “doubles”.
